The nature of the series: label from the status in PepcDB records.

Take “MAKKTGTKEPAPKKEKKKKERRRGKGEGTIVPHASGLFMAQISLGRDPLTGKRIRPTIYDDSEVGVQKKLRKLLIKKDLGKSVKPNKTLVGEWIRIWLDIYSKPNVGIGTWDGYDLNFTNHIENSFIARKTMSGLTTDDLQVYYNMKLLNGRKDGKGGLSTRFVKAIHTVISSAFDQAVTSGHLEKNPASGVRISNKRRPKIKIWNKEQMALYLKAIKKDRLYAAFVTDSKSGLRKSELLALRWSDIDFSTGLTKIERGWVRSPKGTLYLSDLKSENSERTLVFSTDLLKVLLEHKSRQDEEKKTAGKNYIDNGLVFCREDGSYINPSTFTRRHYDLTAKAKLPRISVHALRHSISTALLESGKVDLKQIQEMLGHKDISTTGNYYTDVLERMKQKTSELIDNLIQTEETPAQASLPAAQPSASDLAEEESVEAKNVIDFATRRNEKLFIASNGQKQKNREKAQKP”: the protein production result was “failed”.
For “MAKKVKVITDPEVIKVMLEDTRRKILKLLRNKEMTISQLSEILGKTPQTIYHHIEKLKEAGLVEVKRTEMKGNLVEKYYGRTADVFYINLYLGDEELRYIARSRLKTKIDIFKRLGYQFEENELLNIMDRMSQKEFDATVRISKYIEEKEDALKDFSNEDIIHAIEWLSTAELARDEEYLELLKRLGSILKR”, the protein production result is “not failed”.
The result for “MAKLTTDSPLCRKIVRSFLNFLDSVEVAPGVDEEGLEVARECLREAFKLNSDSSRDDDDDSFKPISLVNLFTSLDNNETIPPPPPPPVAATTQDPSSSGSHVSVDTCKEPSFTGTSRDELFGQLFGALEKVRYFRNTPDGDDDPAQLEKATRIFHDCVNEMEKSGCQTFDVNSLAETLKCQGNKAMQSNLYLEAVELYSFAIALTDKNAVFYCNRAAAYTQINMCSEAIKDCLKSIEIDPNYSKAYSRLGLAYYAQGKYAEAIEKGFKKALLLDPHNESVKENIRVAEQKIREEQQRQRRSQQNTSTFYTQEPEMGGGQGIPSQFSMPVNPDLMSMFMNMAGNTFPGNHSRNNEGGAGGDGTRNGADEPEIHVGGNINIDLGGTEQMPEDLSGALRSMMQMFGGSMGGTGNNNPQDSNGAQGRPSGN” reads “failed”; that for “MAKRFMCETLGTACLGLSMALAAPAAFALADIIETPARPTELAPQSLLTDATRAGDRIVSVGERGHVIYSDDQGQSWTQAEVPVAVTLTAVDFGTEQHGWVVGHSGVVLHSSDSGETWELQLDGIQAAELVIASKEDQIAELEERIEQAPEEEKADLEWALDDLFFALENTQADMEIGPVNPFLDVWFEDENHGFVVGAYGMILRTQDGGQTWEDWAPKLDNPTNFHYNSIAEVAGGALVVVGEAGQIHVSVDGGESWEKRESPYDGSLFGVTGTGRVNEVLAFGLRGNTLLSTDLGRSWTMVPNEGGATLNNAAVAEDGRITLVGNGGAVLMSTNNGESFRPYFRNDREGVMGVVPLPGTNLLLVGEGGVEITDARGRNLN”, “failed”.
Consider “MAKTDARSPRTERGTIALQDASQDIWDKKYRLKSKDGTPVDASVDGTWQRVARALADVEDKASREHWYGRFLWALRNGAIPAGRIISNAGALGHKPATSTINCTVSGTIQDSMDNILEKVHEAGLTLKAGCGIGYEFSTLRPRGAYVSGAGAYTSGPLSFMDIYDKMCFTVSSAGGRRGAQMGTFDVSHPDVREFIRAKREDGRLRQFNLSLLITDQFMQAVEQDADWPLVFPVHVKERDEIDLDDPNAVVWREWPIQDDYVQRADGLVACKVYGQVRARHLWDMIMVSTYDYAEPGFILIDRVNELNNNWWCEAIRATNPCGEQPLPPYGSCLLGSVNLTCFVEQPFGDEARFDWDRFREVVRVFTRMLDNVVEINGLPLEQQRQEILGKRRHGMGFLGLGSTLTLLKLRYGSPEACVFTEEVAREMALVGWEVALELAREKGPAPILAQDYEVTAEMLRKRPEMAADGYKAGDRIRGSVLHAKYSRYMQRVAEHAPELIEALAETGARFTHHSSIAPTGTISLSLANNASNGIEPSFAHHYSRNLIREGRKTKEKVEVYSYELLAYRTLVNAQALPDSDDPARRLPDYFITADSVTPAQHMDIQAAAQKWVDSSISKTANVPTDYPFEDFKDIYRYAWHQGLKGCTTFRFNPEAFQGVLVKESDLEKTRYRFELEDGSVVEFKGNEQVEYDGEIHTAANLFDALKEGYYGK”, for which the protein production entry is “failed”.
The result for “MAKYQSMLVVIDPNQDDQPALRRAVYLHQRIGGRIKAFLPIYDFSYEMTTLLSPDERTAMRQGVIAQRTAWIREQAKFYLESGVPIDVKVVWHNRPFEAIIQEVVSEKHDLLLKMAHQHDKLEAVIFTPTDWHLLRKCPCPVWMVKDQPWPEGGKALVAVNLASEENYHNTLNEKLVRETLSLAEEVNHTEVHLIGAYPVTPINIAIELPDFDPSVYNDAIRGQHLLAMKALRQKFGIDEKFTHVEKGLPEEVIPDLAEHLQAGIVVLGTVGRTGLSAAFLGNTAEQVVDHLRCDLLVLKPEAYQTPVELDDDDDD” reads “failed”.
The same measure for “MALELSRLPELLSRIDGYKGQPVTRLAVMLNLLVFIRSSELRYARWSEIDIDNSMWTIPAEREPLPGVKFSHRGSKMRTPHLVPLSKQVVAILAELQTWAGENGLIFTGAHDPRKPISENTVNKALRVMGYDTTQEVCGHGFRAMACSALIESGLWSRDAVERQMSHQERNGVRAAYIHKAEHLEERRLMLQWWADFLDANREKGISPFEYAKINNPLKLEHHHHHH”: “not failed”; for “MALFKRSSASAKGFDWMGLLWLFLFFWYFSGITQLLIQLTDTSGFTGFRQAFFMSAIWLAPMLLFPARTKVMAAVIGVVLWACSMASLGYFFVYQQEFSQSVIFIMFESNPSEAGEYLTQYFAWWMLLAFLAHSAFAFFLWTRLRPVYLPRGQALVAATAILVAIVGYPLVKQISRADTLAAGLEKFETRIEPAVPWQMVIAYRRYREQLDGMQGMLASASKIAPLTNLKDSMANQPATLVLVIGESTNRQRMSLYGYPRQTTPELDKLKDQLAIFNNVITPRPYTIEALQQVLTFADEENPDLYLKSPSLVSVMKQAGYKTYWITNQQTMTKRNTMLTTFSEQADEQVYLNNNRNQNARQYDGDVLEPFSKALADSAPRKFIVVHLLGTHMSYQYRYPPSFDKFNDRQGVPAGVRDDQLPTYNSYDNAVLYNDFVVSNLIKNYAKTDPNGFLLYLSDHGEDVFDSAGHDTLGRNEARPTAPMYTIPFMAWASPKWRETHDWSFASDLSRPYMSSQLIHTWADLAGLSFDELDHSRSLVSDSFKPRPLLIGDPYSRQSKPLIDFSLMKPKAPVEATVVQK”: “failed”; for “MALINLNHTDDGYDAYDACPARSVQQETAVGAGAQILLLALLGTAIGMGTAGWLTGLAFAFASWAVLSRALHRSRLPSFGPANRVTLGRATLVGGVTALVADSFRSAPPLSLLVGLTAVALILDGVDGRVARRTGTSTPLGARFDMEVDAFLILVLSVYVALDLGPWVLLIGGMRYVFVAAARVWPWLTAPLPPSTARKTVAALQGVLLLLAGAELLPRPGNAGVVAVALGLLVWSFGRDVRWLWRRSRVPAAPVTAVRELVAQ”: “failed”.
The result for “MALLKWIPARGTLPLSPKWVATTLADASPDSVPVLFLHGTLGSPGNFERPAQRLAQLGRPFFAPAYGEHGTADLDRSTAELLRYVDHLRDMGIKQVDIVGHSAGGLQGLRIAHARPGFVRKLIGLGAAFRGVPRTVRFKPVVKLITGQAVIQLTQEIPAELPDGVELVSIYSTADHIVPVASSTLGELIEITDIRHEDLPRQADVIMEALGYPAETDSPTD” reads “failed”.
Take “MALPLSQLPQEIIREVRGRKGLAFLAFVIVSFAVLGAGFVWPYKYQSETIIFVDDRNIIAPLMEGRAVATEINDRTSAAKELLMSRSLIEKVALDPEIYPDAPSDPAALEYRIANIRSGLSVRPRGDSYFSIGFSSTSQMEAFRVAQKLGQVFIEETKDRKRAESRNAYDFIDKQVKSYEQQLAQAENRLKEFLSENTDGTEQEANARMAQLRNQLELAELEKKELETRAASLQSQLGGIRPTITQGRTEDAYRERIRILEERLDSLRLQYHDTYPDIVILREQLAELRKQRDQAAERPTDVSSLEGEEAVNPLYQELRANLSTTRADMATVDTRITSLSRLLEQQAKRMERIQANKAQYSELTRDMEVNREIYDDLLKRREKARVSMHLDIEGQGLNYRINETAQFPRTPSGPQFSMFAAAGLFLGLAAPFGAVAGLLQVDPRIRARKQLEEDIGLPVLVEIPEVRTPYEKRRDRKVTLLIGIFAVLTVTVYVTIVVLAQMGVI”: the protein production result was “failed”.
The same measure for “MALPLVSSVSYIKSSNQFHCSFSLRKEKFELSSFFIVLCSHFSYVDTAERLELDRLLLWSSHQKIRFSKRTFSQRIVVKMSASTLPMNLGKAKKVWIWTMCKEVMTVAVERGWNTFIFSSDNRKLSNEWSSIALMDTLFIEEKKVIDGTGNVVASVFEVSTPEELRSLNIENEQIENIVLDFLDWKSIPAENLVAALQGSEKTVFAVSNTPSEAKLFLEALEHGLGGIILKSEDVKAVLDLKEYFDKRNEESDTLSLTEATITRVQMVGMGDRVCVDLCSLMRPGEGLLVGSFARGLFLVHSECLESNYIESRPFRVNAGPVHAYVAVPGGKTCYLSELRTGREVIVVDQKGKQRTAVVGRVKIEKRPLIVVEAKLSTKEEETVYSIILQNAETVALVTPHQVNSSGRTAVPVTSLKPGDQVLIRLQGGARHTGIEIQEFIVEN”: “failed”; for “MALPPYDPNFTLAFSYGRRDNVFENDPEHDESASAAIVAVELISSARLALKLDSVRTEYSAQYLVDKAGSRNLRRRRKLTVKDCLNFALKKGGIPRAEDWPPLGSESKTPSSYEPALVSMKGEVIEPKDMDEVPELLVHQSAVGAKLHVFTPHIELQQDVSAIAYARYVGLRDGIVVGTEKIQGKSMAIVKVWYKKKFVVVKVALSRMFYLAGVGPSVLLVDFCVPRLSID”: “failed”.
Regarding “MALSGGDDQVPPGGPMTVSTRLIDAGSTIMQRRLPVKQMNTHVSTFAIYGGDMSRLIGTHHYVHRVNDEFLQCAVYASDRSDAPLIGIEYVISDRLYETLSEDEQKLWHSHAYEVKSGSWAYPRLPEVVAAPELKNIAKTYGKFWCTWQIDRGDKLPMGAPELMMSPQGVGQGVLRPELVKRRDEKYNISTDDLKHTRAEIAEPEWINPMADYWKQHGKCFVLDIATVEMNRHAQFP”, the protein production entry was “failed”.
With “MAMKIPKSGYNRFMKEGAQHFKGTDEAVQRNIEACTELASQIRSAYGPNGMNKMVINHIEKLFVTNDAATILKELEIQHPAARIIIMATEMQEKQIGDNTNTVVILAAALLEHAANLIHMGMTPQEVAAGYEQAAEKALEILPTLVVKEATDMKNIEEVRQYIRSAITSKQYDNEDIIADLVAKACVTTCPANSFNFNVDNIRICKIIGSGVHTSTVMNGMVFKRGAEGEIREARDARIAVYTCPFDLTQTETKGTVLIENADELRNFSKGEEAEVEEQVKAIADNARSSILAKFWLMNFSKGEEAEVEEQQVKAIADNGVKVVVAAGKFGDMYLHFLNKYKIMAVRLTSKFDLRRLCRTVGAQPQARICAPAVNLLGHCDSVAVQEIGDENVVVFDKKSETGKVATIIIRGSSQSRIDDVERAVDDAVNTYKALTKDGKLLAGAGAVEIELAKEIESFGAKAPGLEQYAIKKFAHALETLPKAIAENAGMPTTETLTKLYAEHVAGKKNAGIDIWKRETMDAVVNNIFDLYAGKRLAIKLATDAASTILKVDQIIMSKQATGGPKPRGPKAQDEDDDGMA”, the protein production entry is listed as “failed”.
The result for “MAMNGTITTWFKDKGFGFIKDENGDNRYFHVIKVANPDLIKKDAAVTFEPTTNNKGLSAYAVKVVPESKYIYIAGERLKLTSIKSYLVYSEEVPADTRIDKENTVLSVGVLMNSIRPKSVAEPDEIRSLKKLAITTFQGTTLIFSEDEIDVDATVKLLKVLEHHHHHH” reads “not failed”; that for “MAMNLPADNEGKIKLAMSILVTIINDTGVPRNIRRAAANALTHLRDPRLSPAVRAANAISALEEVSQDPNMPFYARTRIWQVITILETVRD”, “failed”; that for “MAMPAHMTLTGEKQGKIDGSCELQGRENTIQLYEMKHDIHMPRNPHDGLPTGKRVHGPLSIVKMFDKSSPKLYQALCTGEHMKNVQIKWYRINKQGLEEHYFTTTLEDAIVVEMKPYMPMTLLPANEPYGHMEEVAFSYKKIKWTWEPNGIEAEDSWSVPK”, “failed”.
